In the Immune Epitope Database (IEDB):
pIC50: −log10 of the molar value. Blank lines part the entries; values can stand above or below the sequence they belong to.

How the values were obtained:
Experiment in all cases: IEDB peptide-MHC binding, cellular MHC/competitive/radioactivity; ≥ and ≤ were set here for values at or beyond the usual limits of such assays
[1] = molecular target: HLA-A*02:02
[2] = molecular target: HLA-A*02:05
[3] = molecular target: HLA-A*02:01
[4] = source organism: Human immunodeficiency virus 1
[5] = source organism: Human immunodeficiency virus type 1 BH10
[6] = source organism: Hepatitis B virus subtype adw2

Sequence: DPKVKQWPL
- pIC50 [1, 4]: 5.00
- pIC50 [2, 4]: 5.00

- pIC50 ([3]; source organism: Homo sapiens): 5.00
- pIC50 ([1]; source organism: Homo sapiens): 5.00
- pIC50 ([2]; source organism: Homo sapiens): 5.00
Sequence: EADPTGHSY

Sequence: ILKEPVHGV
- pIC50 [1, 5]: 6.82
- pIC50 [2, 5]: 8.03

Sequence: IVGAETFYV
- pIC50 ([3]; source organism: HIV-1 M:B_MN): 8.46
- pIC50 ([1]; source organism: HIV-1 M:B_MN): 7.21
- pIC50 ([2]; source organism: HIV-1 M:B_MN): 8.19

- pIC50 ([1]; source organism: Homo sapiens): 7.06
- pIC50 ([2]; source organism: Homo sapiens): 7.72
Sequence: LLGRNSFEV

Sequence: LLPIFFCLWV
- pIC50 [2, 6]: 5.00

Sequence: STLPETTVVRR
- pIC50 [3, 6]: 5.88
- pIC50 [1, 6]: 5.00
- pIC50 [2, 6]: 5.00

Sequence: WLSLLVPFV
- pIC50 [1, 6]: 7.47
- pIC50 [2, 6]: 8.40

Sequence: YLHTLWKAGI
- pIC50 [1, 6]: 7.28
- pIC50 [2, 6]: 7.24
